The values that follow come from patent US20140087995A1 (published 2014).

T1: human amylin receptor (amylin 3(a) receptor: human calcitonin receptor with RAMP-3) (human, UniProt P30988 25-474; O60896 24-148)
T1 sequence (looked up) 1: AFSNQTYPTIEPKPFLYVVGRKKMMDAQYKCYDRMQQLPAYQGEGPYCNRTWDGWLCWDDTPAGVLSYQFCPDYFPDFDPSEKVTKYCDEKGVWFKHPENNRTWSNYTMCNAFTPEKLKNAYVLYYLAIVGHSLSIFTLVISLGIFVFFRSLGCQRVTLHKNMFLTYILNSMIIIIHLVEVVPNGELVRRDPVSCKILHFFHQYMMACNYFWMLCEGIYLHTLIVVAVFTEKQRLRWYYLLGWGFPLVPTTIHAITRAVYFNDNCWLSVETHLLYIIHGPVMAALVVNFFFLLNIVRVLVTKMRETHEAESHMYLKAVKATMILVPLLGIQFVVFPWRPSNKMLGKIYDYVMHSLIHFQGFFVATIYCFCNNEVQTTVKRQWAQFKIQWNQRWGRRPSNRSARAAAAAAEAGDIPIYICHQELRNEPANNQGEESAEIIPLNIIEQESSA
T1 sequence (looked up) 2: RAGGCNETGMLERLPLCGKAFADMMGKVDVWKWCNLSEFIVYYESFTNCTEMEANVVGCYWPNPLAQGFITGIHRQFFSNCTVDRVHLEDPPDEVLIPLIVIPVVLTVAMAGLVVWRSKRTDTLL

T2: human calcitonin receptor (human, UniProt P30988 25-474)
T2 sequence (looked up): T1 sequence (looked up) 1

B1: N^α1-[(4S)-4-carboxy-4-(19-carboxynonadecanoylamino)butanoyl]-[Glu14,Arg17,Pro21,Pro27,Pro29]-h-amylin (peptide)
peptide: {C20 diacid-γGlu}-KCNTATCATQRLAEFLRHSSPNFGAIPSPTNVGSNTY-NH2
modifications: disulfide 2-7
SMILES: CC[C@H](C)[C@H](NC(=O)[C@H](C)NC(=O)CNC(=O)[C@H](Cc1ccccc1)NC(=O)[C@H](CC(N)=O)NC(=O)[C@@H]1CCCN1C(=O)[C@H](CO)NC(=O)[C@H](CO)NC(=O)[C@H](Cc1c[nH]cn1)NC(=O)[C@H](CCCNC(=N)N)NC(=O)[C@H](CC(C)C)NC(=O)[C@H](Cc1ccccc1)NC(=O)[C@H](CCC(=O)O)NC(=O)[C@H](C)NC(=O)[C@H](CC(C)C)NC(=O)[C@H](CCCNC(=N)N)NC(=O)[C@H](CCC(N)=O)NC(=O)[C@@H](NC(=O)[C@H](C)NC(=O)[C@@H]1CSSC[C@H](NC(=O)[C@H](CCCCN)NC(=O)CC[C@H](NC(=O)CCCCCCCCCCCCCCCCCCC(=O)O)C(=O)O)C(=O)N[C@@H](CC(N)=O)C(=O)N[C@@H]([C@@H](C)O)C(=O)N[C@@H](C)C(=O)N[C@@H]([C@@H](C)O)C(=O)N1)[C@@H](C)O)C(=O)N1CCC[C@H]1C(=O)N[C@@H](CO)C(=O)N1CCC[C@H]1C(=O)N[C@H](C(=O)N[C@@H](CC(N)=O)C(=O)N[C@H](C(=O)NCC(=O)N[C@@H](CO)C(=O)N[C@@H](CC(N)=O)C(=O)N[C@H](C(=O)N[C@@H](Cc1ccc(O)cc1)C(N)=O)[C@@H](C)O)C(C)C)[C@@H](C)O
notes: also called compound 37
B2: N^α1-[(4S)-4-carboxy-4-(19-carboxynonadecanoylamino)butanoyl]-[Glu14,Arg17,Pro21,Pro27,Pro37]-h-amylin (peptide)
peptide: {C20 diacid-γGlu}-KCNTATCATQRLAEFLRHSSPNFGAIPSSTNVGSNTP-NH2
modifications: disulfide 2-7
SMILES: CC[C@H](C)[C@H](NC(=O)[C@H](C)NC(=O)CNC(=O)[C@H](Cc1ccccc1)NC(=O)[C@H](CC(N)=O)NC(=O)[C@@H]1CCCN1C(=O)[C@H](CO)NC(=O)[C@H](CO)NC(=O)[C@H](Cc1c[nH]cn1)NC(=O)[C@H](CCCNC(=N)N)NC(=O)[C@H](CC(C)C)NC(=O)[C@H](Cc1ccccc1)NC(=O)[C@H](CCC(=O)O)NC(=O)[C@H](C)NC(=O)[C@H](CC(C)C)NC(=O)[C@H](CCCNC(=N)N)NC(=O)[C@H](CCC(N)=O)NC(=O)[C@@H](NC(=O)[C@H](C)NC(=O)[C@@H]1CSSC[C@H](NC(=O)[C@H](CCCCN)NC(=O)CC[C@H](NC(=O)CCCCCCCCCCCCCCCCCCC(=O)O)C(=O)O)C(=O)N[C@@H](CC(N)=O)C(=O)N[C@@H]([C@@H](C)O)C(=O)N[C@@H](C)C(=O)N[C@@H]([C@@H](C)O)C(=O)N1)[C@@H](C)O)C(=O)N1CCC[C@H]1C(=O)N[C@@H](CO)C(=O)N[C@@H](CO)C(=O)N[C@H](C(=O)N[C@@H](CC(N)=O)C(=O)N[C@H](C(=O)NCC(=O)N[C@@H](CO)C(=O)N[C@@H](CC(N)=O)C(=O)N[C@H](C(=O)N1CCC[C@H]1C(N)=O)[C@@H](C)O)C(C)C)[C@@H](C)O
notes: also called compound 8
B3: N^α1-[(4S)-4-carboxy-4-(19-carboxynonadecanoylamino)butanoyl]-[Glu14,Arg17,Pro21,Pro27,Pro31]-h-amylin (peptide)
peptide: {C20 diacid-γGlu}-KCNTATCATQRLAEFLRHSSPNFGAIPSSTPVGSNTY-NH2
modifications: disulfide 2-7
SMILES: CC[C@H](C)[C@H](NC(=O)[C@H](C)NC(=O)CNC(=O)[C@H](Cc1ccccc1)NC(=O)[C@H](CC(N)=O)NC(=O)[C@@H]1CCCN1C(=O)[C@H](CO)NC(=O)[C@H](CO)NC(=O)[C@H](Cc1c[nH]cn1)NC(=O)[C@H](CCCNC(=N)N)NC(=O)[C@H](CC(C)C)NC(=O)[C@H](Cc1ccccc1)NC(=O)[C@H](CCC(=O)O)NC(=O)[C@H](C)NC(=O)[C@H](CC(C)C)NC(=O)[C@H](CCCNC(=N)N)NC(=O)[C@H](CCC(N)=O)NC(=O)[C@@H](NC(=O)[C@H](C)NC(=O)[C@@H]1CSSC[C@H](NC(=O)[C@H](CCCCN)NC(=O)CC[C@H](NC(=O)CCCCCCCCCCCCCCCCCCC(=O)O)C(=O)O)C(=O)N[C@@H](CC(N)=O)C(=O)N[C@@H]([C@@H](C)O)C(=O)N[C@@H](C)C(=O)N[C@@H]([C@@H](C)O)C(=O)N1)[C@@H](C)O)C(=O)N1CCC[C@H]1C(=O)N[C@@H](CO)C(=O)N[C@@H](CO)C(=O)N[C@H](C(=O)N1CCC[C@H]1C(=O)N[C@H](C(=O)NCC(=O)N[C@@H](CO)C(=O)N[C@@H](CC(N)=O)C(=O)N[C@H](C(=O)N[C@@H](Cc1ccc(O)cc1)C(N)=O)[C@@H](C)O)C(C)C)[C@@H](C)O
notes: also called compound 31
B4: N^α1-[(4S)-4-carboxy-4-(19-carboxynonadecanoylamino)butanoyl]-[His14,Arg17,Pro21,Pro27,Glu35]-h-amylin (peptide)
peptide: {C20 diacid-γGlu}-KCNTATCATQRLAHFLRHSSPNFGAIPSSTNVGSETY-NH2
modifications: disulfide 2-7
SMILES: CC[C@H](C)[C@H](NC(=O)[C@H](C)NC(=O)CNC(=O)[C@H](Cc1ccccc1)NC(=O)[C@H](CC(N)=O)NC(=O)[C@@H]1CCCN1C(=O)[C@H](CO)NC(=O)[C@H](CO)NC(=O)[C@H](Cc1c[nH]cn1)NC(=O)[C@H](CCCNC(=N)N)NC(=O)[C@H](CC(C)C)NC(=O)[C@H](Cc1ccccc1)NC(=O)[C@H](Cc1c[nH]cn1)NC(=O)[C@H](C)NC(=O)[C@H](CC(C)C)NC(=O)[C@H](CCCNC(=N)N)NC(=O)[C@H](CCC(N)=O)NC(=O)[C@@H](NC(=O)[C@H](C)NC(=O)[C@@H]1CSSC[C@H](NC(=O)[C@H](CCCCN)NC(=O)CC[C@H](NC(=O)CCCCCCCCCCCCCCCCCCC(=O)O)C(=O)O)C(=O)N[C@@H](CC(N)=O)C(=O)N[C@@H]([C@@H](C)O)C(=O)N[C@@H](C)C(=O)N[C@@H]([C@@H](C)O)C(=O)N1)[C@@H](C)O)C(=O)N1CCC[C@H]1C(=O)N[C@@H](CO)C(=O)N[C@@H](CO)C(=O)N[C@H](C(=O)N[C@@H](CC(N)=O)C(=O)N[C@H](C(=O)NCC(=O)N[C@@H](CO)C(=O)N[C@@H](CCC(=O)O)C(=O)N[C@H](C(=O)N[C@@H](Cc1ccc(O)cc1)C(N)=O)[C@@H](C)O)C(C)C)[C@@H](C)O
notes: also called compound 30
B5: N^α1-[(4S)-4-carboxy-4-[[(4S)-4-carboxy-4-(19-carboxynonadecanoylamino)butanoyl]amino]butanoyl]-[Glu14,Arg17,Pro21,Pro27,Pro37]-h-amylin (peptide)
peptide: {C20 diacid-γGlu-γGlu}-KCNTATCATQRLAEFLRHSSPNFGAIPSSTNVGSNTP-NH2
modifications: disulfide 2-7
SMILES: CC[C@H](C)[C@H](NC(=O)[C@H](C)NC(=O)CNC(=O)[C@H](Cc1ccccc1)NC(=O)[C@H](CC(N)=O)NC(=O)[C@@H]1CCCN1C(=O)[C@H](CO)NC(=O)[C@H](CO)NC(=O)[C@H](Cc1c[nH]cn1)NC(=O)[C@H](CCCNC(=N)N)NC(=O)[C@H](CC(C)C)NC(=O)[C@H](Cc1ccccc1)NC(=O)[C@H](CCC(=O)O)NC(=O)[C@H](C)NC(=O)[C@H](CC(C)C)NC(=O)[C@H](CCCNC(=N)N)NC(=O)[C@H](CCC(N)=O)NC(=O)[C@@H](NC(=O)[C@H](C)NC(=O)[C@@H]1CSSC[C@H](NC(=O)[C@H](CCCCN)NC(=O)CC[C@H](NC(=O)CC[C@H](NC(=O)CCCCCCCCCCCCCCCCCCC(=O)O)C(=O)O)C(=O)O)C(=O)N[C@@H](CC(N)=O)C(=O)N[C@@H]([C@@H](C)O)C(=O)N[C@@H](C)C(=O)N[C@@H]([C@@H](C)O)C(=O)N1)[C@@H](C)O)C(=O)N1CCC[C@H]1C(=O)N[C@@H](CO)C(=O)N[C@@H](CO)C(=O)N[C@H](C(=O)N[C@@H](CC(N)=O)C(=O)N[C@H](C(=O)NCC(=O)N[C@@H](CO)C(=O)N[C@@H](CC(N)=O)C(=O)N[C@H](C(=O)N1CCC[C@H]1C(N)=O)[C@@H](C)O)C(C)C)[C@@H](C)O
notes: also called compound 14
B6: N^α1-[(4S)-4-carboxy-4-(19-carboxynonadecanoylamino)butanoyl]-[Glu14,Arg17,Pro21,Pro27,Pro34]-h-amylin (peptide)
peptide: {C20 diacid-γGlu}-KCNTATCATQRLAEFLRHSSPNFGAIPSSTNVGPNTY-NH2
modifications: disulfide 2-7
SMILES: CC[C@H](C)[C@H](NC(=O)[C@H](C)NC(=O)CNC(=O)[C@H](Cc1ccccc1)NC(=O)[C@H](CC(N)=O)NC(=O)[C@@H]1CCCN1C(=O)[C@H](CO)NC(=O)[C@H](CO)NC(=O)[C@H](Cc1c[nH]cn1)NC(=O)[C@H](CCCNC(=N)N)NC(=O)[C@H](CC(C)C)NC(=O)[C@H](Cc1ccccc1)NC(=O)[C@H](CCC(=O)O)NC(=O)[C@H](C)NC(=O)[C@H](CC(C)C)NC(=O)[C@H](CCCNC(=N)N)NC(=O)[C@H](CCC(N)=O)NC(=O)[C@@H](NC(=O)[C@H](C)NC(=O)[C@@H]1CSSC[C@H](NC(=O)[C@H](CCCCN)NC(=O)CC[C@H](NC(=O)CCCCCCCCCCCCCCCCCCC(=O)O)C(=O)O)C(=O)N[C@@H](CC(N)=O)C(=O)N[C@@H]([C@@H](C)O)C(=O)N[C@@H](C)C(=O)N[C@@H]([C@@H](C)O)C(=O)N1)[C@@H](C)O)C(=O)N1CCC[C@H]1C(=O)N[C@@H](CO)C(=O)N[C@@H](CO)C(=O)N[C@H](C(=O)N[C@@H](CC(N)=O)C(=O)N[C@H](C(=O)NCC(=O)N1CCC[C@H]1C(=O)N[C@@H](CC(N)=O)C(=O)N[C@H](C(=O)N[C@@H](Cc1ccc(O)cc1)C(N)=O)[C@@H](C)O)C(C)C)[C@@H](C)O
notes: also called compound 32

Numbered stars: 1 amine (or outer) side, 2 acyl side, 3 side chain; on linkers, the order of the positions; unused ones are H or OH. Bridge positions count the residues as written; N and C are the ends. * marks the point of attachment. C20 diacid = O=C(O)CCCCCCCCCCCCCCCCCCC(=O)*; γGlu = O=C(O)[C@H](CCC(=O)[*:2])N[*:1]

The target of the first assay is T1, human amylin receptor (amylin 3(a) …). In words: cell-based or functional assay.
With B1, the “hAmylin-R funct. EC50” value was 92 pM.
As for B2, the “hAmylin-R funct. EC50” value came out at 82 pM.
Turning to B3, the “hAmylin-R funct. EC50” value was found to be 112 pM.
Consider B4, for which the “hAmylin-R funct. EC50” value was found to be 134 pM.
On the same count and under the same terms, in the case of B5 it was 146 pM; in that of B6, 50 pM.

Another assay concerns the target T2, human calcitonin receptor. In words: cell-based or functional assay.
Turning to B1, the “Ratio hCT/hAmylin funct.” value turned out to be 4 and the “hCTR funct. EC50” value is 372 pM.
For B2, in that order: 1.1 and 87 pM.
The like results for B3 were, in that order, 6.4 and 717 pM.
The like results for B4 were, in that order, 12.6 and 1680 pM.
Take B5: the “Ratio hCT/hAmylin funct.” value worked out at 1.6 and the “hCTR funct. EC50” value came out at 238 pM.
The like results for B6 were, in that order, 6.6 and 327 pM.
